# Laboratory results reported in patent US20240067747A1 (SHANGHAI HUAOTA BIOPHARMACEUTICAL, published 2024).
# Where a chain is given by its changes, count along the chain named.
# B1: 900725 (humanized anti-CD73 antigen-binding protein) (antibody, V domains shown)
# VH: QVQLVQSGAEVKKPGASVKLSCKASGYTFTSYWIHWVRQAPGQGLEWIGMIHPNSGSTYYNEKFKGRATLTVDKSTSTAYMELSSLRSEDTAVYYCARYYGSDYEWYFDVWGQGTTVTVSS
# VL: DIQMTQSPSSMSASVGDRVTITCKASQNVRTAVVWYQQKPGKAPKALIYLASNRHTGVPDRFSGSGSGTDFTLTISSLQPEDFATYFCLQHWNYPYTFGQGTKLEIK
# B2: 900728 (humanized anti-CD73 antigen-binding protein) (antibody, V domains shown)
# VH: B1 VH with L20V, K65Q, A68V, L70M
# VL: B1 VL with M11L, F87Y
# B3: 900567 (human-mouse chimeric anti-CD73 antigen-binding protein expressed from 124A9 variable regions) (antibody, V domains shown)
# VH: QVQLQQPGAELVKPGASVKLSCKASGYTFTSYWIHWVKQRPGQGLDWIGMIHPNSGSTYYNEKFKSKATLTVDKSSSTAYMQLSSLTSEDSAVYYCARYYGSDYEWYFDVWGTGTTVTVSS
# VL: DIVMTQSQKFMSTSVGDRVSITCKASQNVRTAVVWYQQNPGQSPKALIYLASNRHTGVPDRFTGSGSGTDFTLTISNVHSEDLADYFCLQHWNYPYTFGGGTKLEIK
# B4: 900726 (humanized anti-CD73 antigen-binding protein) (antibody, V domains shown)
# VH: B1 VH
# VL: B1 VL with M11L, F87Y
# B5: 900727 (humanized anti-CD73 antigen-binding protein) (antibody, V domains shown)
# VH: B1 VH with L20V, N61A, E62Q, K65Q, A68V, L70I
# VL: B1 VL
# Target: T1, human CD73 on the cell surface of CHOK1-huCD73-3F4 cells (Huabo Biopharm) (human, UniProt P21589 27-549)
# T1 sequence (looked up): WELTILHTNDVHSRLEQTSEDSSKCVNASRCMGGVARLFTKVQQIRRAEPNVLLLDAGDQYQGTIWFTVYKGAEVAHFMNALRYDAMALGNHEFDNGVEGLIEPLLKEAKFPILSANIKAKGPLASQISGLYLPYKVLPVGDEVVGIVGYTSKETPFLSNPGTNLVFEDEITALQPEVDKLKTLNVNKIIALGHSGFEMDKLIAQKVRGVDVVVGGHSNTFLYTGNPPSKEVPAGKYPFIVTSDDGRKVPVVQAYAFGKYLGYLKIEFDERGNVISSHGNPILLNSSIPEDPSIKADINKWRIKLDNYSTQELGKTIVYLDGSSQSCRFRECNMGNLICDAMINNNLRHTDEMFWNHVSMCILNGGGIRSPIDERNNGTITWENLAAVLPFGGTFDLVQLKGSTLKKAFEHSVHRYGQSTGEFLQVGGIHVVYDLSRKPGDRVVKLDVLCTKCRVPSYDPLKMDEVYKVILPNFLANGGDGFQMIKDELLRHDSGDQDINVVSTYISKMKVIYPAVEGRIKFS
# Test: cell-based or functional assay
row,Binder,"EC50 of inhibition of the enzyme activity of CD73 on cell membrane (AMP/ATP, CellTiter-Glo) [µg/mL]"
1,B1,0.0697
2,B2,0.0467
3,B3,0.025

# Target: T1, human CD73 on the cell surface of …
# Test: flow cytometry on CHOK1-huCD73-3F4 cells, PE-goat anti-human-Fc
# Method: All antigen-binding proteins were diluted to 30 μg/ml with 1% BSA in PBS solution (1% BSA/PBS) and then 3-fold diluted for 11 gradients. The diluted antigen-binding proteins were added to a 96-well U-shaped plate at 20 μL per well; and a negative control (with 1% BSA/PBS added only) was set up at the same time. The suspension of cells (CHOK1-huCD73-3F4, Huabo Biopharm) expressing human CD73 during the logarithmic growth phase were centrifuged (1000 rpm×5 min) to discard the culture medium; and the cells were resuspended with 1% BSA/PBS until the density of viable cells was 1×10⁶/mL, and were added, at 20 μL (2×10⁴ cells) per well, to the 96-well U-shaped plate with the […] antigen-binding protein to react for 30 min at room temperature. After reaction, the 96-well U-shaped plate was resuspended with 1% BSA/PBS, centrifuged (300 g×3 min) to discard the supernatant, and washed once in such a way. PE-goat anti-human-Fc (Jackson ImmunoResearch, #109-115098) diluted at 1:200 was added to react for 15 min in the dark at room temperature. After reaction, the 96-well U-shaped plate was resuspended with 1% BSA/PBS, centrifuged (300 g×3 min) to discard the supernatant, washed three times in such a way, and finally resuspended with 100 μL of 1% BSA/PBS for each wall; and the fluorescence intensity of a PE channel was detected with a flow cytometer (BD, #Cantoll).
row,Binder,EC50 [µg/mL]
1,B1,0.106
2,B2,0.105
3,B4,0.174
4,B3,0.065

# Target: T2, Mouse CD73/NT5E protein (ACRO Biosystems, item No. CD3-M52H9) (mouse, UniProt Q61503 29-551)
# T2 construct: Bought protein
# T2 sequence (looked up): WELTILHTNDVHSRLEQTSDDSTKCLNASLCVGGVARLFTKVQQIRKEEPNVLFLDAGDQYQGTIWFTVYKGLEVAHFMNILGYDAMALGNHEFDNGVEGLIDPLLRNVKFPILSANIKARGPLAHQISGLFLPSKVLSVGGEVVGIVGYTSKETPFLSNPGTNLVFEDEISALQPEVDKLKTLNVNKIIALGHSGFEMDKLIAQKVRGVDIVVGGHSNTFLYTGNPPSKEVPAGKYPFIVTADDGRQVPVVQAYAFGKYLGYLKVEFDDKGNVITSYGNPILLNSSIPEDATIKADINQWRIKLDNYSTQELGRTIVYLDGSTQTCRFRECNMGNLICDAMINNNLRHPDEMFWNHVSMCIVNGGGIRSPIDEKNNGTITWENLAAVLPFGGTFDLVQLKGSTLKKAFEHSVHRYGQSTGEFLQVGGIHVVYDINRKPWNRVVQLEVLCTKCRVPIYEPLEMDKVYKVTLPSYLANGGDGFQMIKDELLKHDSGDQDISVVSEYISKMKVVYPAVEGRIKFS
# Test: SPR, Biacore T200, antibody captured on protein A chip, CD73 as analyte
# Method: In the tests, the assay buffer HBS-EP+ (pH 7.4) and the protein A chip (manufacturer: GE, item No.: 29-1275-56) were used.
# The temperatures of a sample chamber and a flow path were set at 25° C., and the protein A chip respectively captured antigen-binding proteins as ligands and immobilized at about 100 RU. […] After association for 120 s at a flow rate of 30 μL/min, dissociation was carried out for 600 s. Regeneration was then carried out for 60 s with 10 mM Glycine (pH 1.5) at a flow rate of 50 μL/min to implement multi-cycle kinetic detection. A 1:1 binding model was selected for fitting analysis in a Fit local mode to acquire the association rate constant (ka), dissociation rate constant (kd) and dissociation equilibrium rate constant (KD).
row,Binder,binding result
1,B1,no binding (tested: 50 nM (highest analyte concentration))
2,B2,no binding (tested: 50 nM (highest analyte concentration))
3,B4,no binding (tested: 50 nM (highest analyte concentration))
4,B5,no binding (tested: 50 nM (highest analyte concentration))
5,B3,no binding (tested: 50 nM (highest analyte concentration))
